Target: Y925F-FAK (nonphosphorylatable mutant of FAK/YCam) (human, UniProt Q05397 1-1052, Y925F)
Assay: co-IP

Y925F-FAK (nonphosphorylatable mutant of FAK/YCam), sequence (Q05397 whole entry Y925F): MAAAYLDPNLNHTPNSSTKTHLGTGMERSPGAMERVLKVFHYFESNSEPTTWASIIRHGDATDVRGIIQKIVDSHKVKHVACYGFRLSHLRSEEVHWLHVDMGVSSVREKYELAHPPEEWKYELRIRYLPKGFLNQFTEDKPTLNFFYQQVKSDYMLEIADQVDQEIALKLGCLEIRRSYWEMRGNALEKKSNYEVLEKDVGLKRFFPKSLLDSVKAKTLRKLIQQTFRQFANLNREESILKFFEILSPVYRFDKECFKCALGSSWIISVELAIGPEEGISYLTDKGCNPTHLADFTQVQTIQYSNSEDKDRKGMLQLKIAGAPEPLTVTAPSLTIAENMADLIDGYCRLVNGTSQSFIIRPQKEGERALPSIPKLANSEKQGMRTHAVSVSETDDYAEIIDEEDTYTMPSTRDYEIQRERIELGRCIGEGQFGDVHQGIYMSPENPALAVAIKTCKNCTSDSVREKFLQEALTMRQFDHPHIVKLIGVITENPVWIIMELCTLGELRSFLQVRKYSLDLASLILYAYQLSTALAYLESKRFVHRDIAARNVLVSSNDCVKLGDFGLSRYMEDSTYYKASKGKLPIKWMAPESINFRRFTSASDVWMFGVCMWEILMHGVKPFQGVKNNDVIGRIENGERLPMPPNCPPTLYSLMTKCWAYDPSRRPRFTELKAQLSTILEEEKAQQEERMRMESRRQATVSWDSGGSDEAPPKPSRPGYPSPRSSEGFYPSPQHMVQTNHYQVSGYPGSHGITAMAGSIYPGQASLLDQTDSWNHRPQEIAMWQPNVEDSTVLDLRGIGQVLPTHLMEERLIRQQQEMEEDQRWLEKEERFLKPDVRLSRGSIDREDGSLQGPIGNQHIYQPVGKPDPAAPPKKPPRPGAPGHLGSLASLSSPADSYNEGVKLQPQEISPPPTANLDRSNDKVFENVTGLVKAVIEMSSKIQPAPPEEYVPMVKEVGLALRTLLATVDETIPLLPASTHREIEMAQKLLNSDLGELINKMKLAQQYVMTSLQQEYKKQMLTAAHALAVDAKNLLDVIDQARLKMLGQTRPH

B1: paxillin (natural protein)
chain: not shown
fold change of co-precipitated paxillin against wild-type FAK or Y925E-FAK: 3 fold

Reference: PMC3069021 (Molecular Biology of the Cell, 2011)
